Data as given in the supplement of paper PMC9170038.

What was measured:
[1] = tested on: MS2 coat protein; test: apparent KD of MS2 coat protein, switch OFF state (with FMN for OFF switches, without FMN for ON switches); designed switch direction (-1 OFF switch, 1 ON switch): -1; higher = weaker reporter binding; details: FMN input: 0 or 200 uM; Eterna round: R93 (includes R88 designs)
Method in brief: (§1)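 Apparent KD stands for the median, per design, of fits to normalised cluster binding curves. The curves came from titrating on-chip-transcribed RNA switches on Illumina sequencing clusters with SNAP-549-labelled MS2 coat protein, twofold from 0.7 or 1.5 nM to 3 µM. Buffer was 100 mM Tris-HCl pH 7.5, 80 mM KCl, 4 mM MgCl2, without or with constant ligand.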

[2] = tested on: MS2 coat protein; test: apparent KD of MS2 coat protein, switch ON state; designed switch direction (-1 OFF switch, 1 ON switch): -1; higher = weaker reporter binding; details: FMN input: 0 or 200 uM; Eterna round: R93 (includes R88 designs)
Method in brief: as §1

Row | Sequence | apparent KD of MS2 coat protein [1] | apparent KD of MS2 coat protein [2]
1 | AAAAAACAUGAGGAUCACCCAUGUCAGGAUAUGCUCAGCAAUAUUCCAAUAAAGAACGGUAGAAGGGACAGGAA [Bilbo Confounded 24 - Jieux - Exclusion 1] | 26.6 nM | 24.9 nM
2 | AAAAAACAUGAGGAUCACCCAUGUGAGGAUAUCCAGAAGGGAAUAAAAUAACUCGAAAGGAGAAGGCGCAAAAA [Ex 1 May 34] | 26.2 nM | 31.8 nM
3 | AAAAAACAUGAGGAUCACCCAUGUGAGGAUAUCCUGAAGGGAAUAAAAUAACUCGAAAGGAGAAGGCGCAAAAA [Ex 1 May 32] | 33 nM | 35.2 nM
4 | AAAAAACAUGAGGAUCACCCAUGUGAGGAUAUGAAAAUACUAAGACAACUGUAAUCAAUCAGAAGGCACAACAA [JR_Exc--1_Sub1208] | 19.6 nM | 18.8 nM
5 | AAAAAACAUGAGGAUCACCCAUGUGAGGAUAUGCGAAAAUAAAAUAAAAUAAUAAAAAGCAGAAGGCACAAAAA [58%, Sh'dynasty, 1] | 89.3 nM | 67.7 nM
6 | AAAAACCGAGGAUAUACAUGAGGAUCACCCAUGUAAAAAAAAAAAAAGGGAAAAAAAAGUAGAAGGCGGAAAAA [Djehuti Sekhemresementawy] | 34.8 nM | 26.2 nM
7 | AAAAAGAGAGGAUAUACAUGAGGAUCACCCAUGUGAAAAAAAAAAAAAGGGAAAAGAUGUAGAAGGCUCAAAAA [65%, Moding Exclusion3-cac2, 16] | 32.1 nM | 30.4 nM
8 | AAAAAGCGAGGAUAUACAUAGCUAAGACAUGUAAGCGAAAAACAUGAGGAUCACCCAUGUAGAAGGCGCAAAAA [Exclusion2-02] | 16.5 nM | 16.8 nM
9 | AAAAAGCGAGGAUAUACUAAAAAACCUCAAAAAAAAAAAAAACAUGAGGAUCACCCAUGUAGAAGGCGCAAAAA [JR_Exc002_Sub001] | 113 nM | 86.1 nM
10 | AAAAAGCGAGGAUAUGCAAGAAAAAAAAAAAAAAAAAAGGGACAUGAGGAUCACCCAUGUAGAAGGCGCAAAAA [Diamond 65] | 38 nM | 54.9 nM
11 | AAAAAGCUAGGAUAUACAUGAGGAUCACCCAUGUAAAAAAAAAAAAAGGGAAAAAAAAGUAGAAGGAGCAAAAA [Merankhre Mentuhotep VI] | 26 nM | 18.4 nM
12 | AAAAAGGCAGGAUAUACAUGAGGAUCACCCAUGUAAAAAAAAAAAAAAGGGAAAAAAAGUAGAAGGGCCAAAAA [Along] | 53.4 nM | 31.1 nM
13 | AAAAAGGCAGGAUAUACAUGAGGAUCACCCAUGUAAAAAAAAACAAGAGAAAAAAAAUGUAGAAGGGCCAAAAA [Ex3 Malc#3] | 26 nM | 26.8 nM
14 | AAAAAGGCAGGAUAUGCAUACACACAAAAAAAAAAACUGGGACAUGAGGAUCACCCAUGUAGAAGGGCCAAAAA [Dora Explored 8 - Jieux - Exclusion 2] | 54 nM | 151 nM
15 | AAAAAGGGAGGAUAUACAUGAGGAUCACCCAUGUAACAGACGAAAAAGAGUCUGAAAAGUAGAAGGCCCAAAAA [65%, Moding Exclusion3-cac2, 7] | 19.2 nM | 24.7 nM
16 | AAAAAGGGAGGAUAUACGAAAUAGGGAAACCUAAAAAAGGGACAUGAGGAUCACCCAUGUAGAAGGCCCAAGAA [Clint Eastwood 64% 6] | 223 nM | 39 nM
17 | AAAAAGGGAGGAUAUGCAUACACAAAAAAAAAAAAAAAAAAACAUGAGGAUCACCCAUGUAGAAGGCCCAAAAA [Dora Explored 3 - Jieux - Exclusion 2] | 28.9 nM | 37.4 nM
18 | AAAAAGUCAGGAUAUACAAAAGUGCGAAAGCACAAAAAGGGACAUGAGGAUCACCCAUGUAGAAGGGACAAGAA [Married to this design, 61% 4] | 124 nM | 73.3 nM
19 | AAAAAGUCAGGAUAUGCGAAGGCGUCUGAUAGACGAGGCUAGCAGAAGGGACAUGAGGAUCACCCAUGUAAAAA [Mat - Exclusion 4 - Rerun - D81] | 45 nM | 50.5 nM
20 | AAAAAGUCAGGAUAUGCGAAGGCGUCUGAUAGACGAGGCUAGCAGAAGGGACAUGAGGAUCACCCAUGUAAAAA [Mat - Mod of Nando] | 45 nM | 50.5 nM
21 | AAAAAGUCAGGAUAUGCGAAGGCGUCUGAUAGACGAGGCUAGCAGAAGGGACAUGAGGAUCACCCAUGUGAAAA [Mat - Mod of Nando 64% 1] | 143 nM | 57.9 nM
22 | AAAAAGUCAGGAUAUGUCAAAAGUCACAAAAGUGACAAAAGACAGAAGGGACAUGAGGAUCACCCAUGUGGAAA [Mod of Eli - Late G segment 1] | 134 nM | 89.3 nM

Row | Sequence | apparent KD of MS2 coat protein [1] | apparent KD of MS2 coat protein [2]
23 | AAAAAGUGAGGAUAUACAUGAAAAAAAAAAAAAAAAAAAAAACAUGAGGAUCACCCAUGUAGAAGGCGCAAAAA [GC GU GC sandwich] | 43.1 nM | 31.5 nM
24 | AAAAAGUGAGGAUAUACAUGAGGAUCACCCAUGUGAAGGGAAGAAAGAAAGAAAGAAAGUAGAAGGCACAAAAA [Default title] | 222 nM | 51.1 nM
25 | AAAAAGUGAGGAUAUACGCUGUGGAGUAGACACAACCAGGCGUAGAAGGCACAUGAGGAUCACCCAUGUCCAAA [EX4 Malc#18] | 44.1 nM | 23.9 nM
26 | AAAAAGUGAGGAUAUAGCAAAGGUCACGAAAGUGACAAAGGCUAGAAGGCACAUGAGGAUCACCCAUGUCCAAG [Mat - Exclusion 4 - Eli mod - D98] | 56.5 nM | 28.6 nM
27 | AAAAAGUGAGGAUAUUCGGAAGGGAAAGCGCAAACCCAACCGAAGAAGGCACAUGAGGAUCACCCAUGUGAAAA [Ecls4-III 65% - Early + late G segment 1] | 33 nM | 21.2 nM
28 | AAAAAGUGAGGAUAUUCGGAAGGGAAAGCGCAAACCCAACCGAAGAAGGCACAUGAGGAUCACCCAUGUGGAAG [Mat - Exaclusion 4 - Eli mod - D57] | 30.2 nM | 29.5 nM
29 | AAAAAGUUAGGAUAUACAUGAGGAUCACCCAUGUGCACAUAUGGAGAAUAUGGUAGUAGUAGAAGGGACAAAAA [EX2 Malc#16] | 33.3 nM | 30.3 nM
30 | AAAAAUGGAGGAUAUACAUGAGGAUCACCCAUGUGUGGGCAUACUGUGUCGGCGUCAGGUAGAAGGCCAAAAAA [Gilly Gone Silly 27 - Jieux - Exclusion 3] | 47.8 nM | 36.5 nM
31 | AAAAAUUGAGGAUAUACAUGAGGAUCACCCAUGUUAGAACAAAAAAAAGGGAAAGAAAGUAGAAGGCAAUAAAA [Ex 3 May 26] | 26.9 nM | 20 nM
32 | AAAACGAUAGGAUAUACAUGAGGAUCACCCAUGUUAAAAUGUAGAAGGCUGAAAAAAAGUAGAAGGAUCAAAAA [EXC - 3] | 34.4 nM | 29.5 nM
33 | AAAACGUGAGGAUAUGCACCAAAAAAGAAAAAACGGGUACGACAUGAGGAUCACCCAUGUAGAAGGCACGAAAA [Frodo Flailing 8 - Jieux - Exclusion 2] | 37.2 nM | 35.3 nM
34 | AAAAGACAUGAGGAUCACCCAUGUCAGGAUAUGACUUGAAAAAUAAAAUAAAAACAUGUCAGAAGGGACAUGAA [Design 46: Sub-opt DB] | 25.2 nM | 28.5 nM
35 | AAAAGACAUGAGGAUCACCCAUGUGAGGAUAUCGGAAAAGGAAAAAUAAAAAAGAAGACGAGAAGGCACACCAA [Mat - Exclusion 1 - Eli mod - D75] | 48.2 nM | 43.9 nM
36 | AAAAGGGCAGGAUAUGCAUGUUGGCAAAAUUCUCAUCAAACACAUGAGGAUCACCCAUGUAGAAGGGCCAACGG [Inonenonat] | 161 nM | 110 nM
37 | AAAAGGUCAGGAUAUGCCCACCUGGUGGAAAAACCAGGUGGGCAGAAGGGACAUGAGGAUCACCCAUGUAAAAA [Excls4-Ii] | 78.2 nM | 53.1 nM
38 | AAAAUACAUGAGGAUCACCCAUGUGAGGAUAUGCAAAACCCAUAUAAAAAGGGAAAAAGCAGAAGGCACAAAAA [wbt round 1 mod 15] | 52.9 nM | 33 nM
39 | AAAAUGUCAGGAUAUGUAAAAAAAAAAAAAAAAAAAAAAAUACAGAAGGGACAUGAGGAUCACCCAUGUCAGGG [EX4 390: Minimal 2] | 79 nM | 113 nM
40 | AAACAGGGAGGAUAUACACCAUACAAACCUCUAAACAAAAGACAUGAGGAUCACCCAUGUAGAAGGCCCAACAA [Default title] | 103 nM | 57.5 nM
41 | AAACCACAUGAGGAUCACCCAUGUAAGGAUAUGAACGAAAAUAAAUAAAAAUAAAAGUUCAGAAGGUACAAAAA [66%, Wbt, 22] | 24.3 nM | 26.3 nM
42 | AAACCACAUGAGGAUCACCCAUGUUAGGAUAUGAACGAAAAUAAAUAAAAAUAAAAGUUCAGAAGGGACAAAAA [66%, Wbt, 21] | 14.9 nM | 21.5 nM
43 | AAACGUAGAGGAUAUACAUAAGUAUUACGAAAGUAAUACAAACAUGAGGAUCACCCAUGUAGAAGGCUACGAAA [MOD2 of Meechl's MS2 Ex2 (MS2 riboswitches - Exlclusion 2)] | 28 nM | 24.9 nM
44 | AAAGACAGAGGAUAUACAUGAGGAUCACCCAUGUGGCGAAAAAAAAUCCAUUUGGCAUGUAGAAGGCUGUAUGA [Orerzadi] | 51.3 nM | 66.9 nM
